US10899824B2 (Polichem S.A., priority 2016, dated 2021)

Assays:
HSV-1 [1] = assay: Syncytia formation evaluation (qualitative neutralization assay); format: cell-based, HSV-1 (HF strain)
Procedure: (§1) Purified Fabs (Ex2(G2), Ex2B(G2), Ex2C(G2), Ex2H(G2) and Ex2I (G2) were pre-incubated (10 μg/mL) with a standard amount of HSV-1 or HSV-2 isolates. Appropriate experimental controls were also included. The different “infection-mix” was used to infect Vero E6 cells (adsorption 2 hours before change of medium).
(§2) After twenty hours, the cell monolayers were Fixed and Permeabilized with crystal violet containing solution allowing first a qualitative evaluation of Fabs biological activities against both HSV-1 and HSV-2 isolates (procedure described in the Materials and Methods section). The reduction of syncytia formation was assessed by bright field phase contrast optical microscopy. As already stated, this assay allowed a first evaluation of Fab potencies.
(§3) The qualitative assays (described in the Materials and Methods section) were performed on IgG1 format of selected anti-HSV-1 and 2 Fabs (FIG. 11).
(§4) In order to evaluate the potency of Fab Ex2, a qualitative assay using different dilutions was performed. Three different concentrations of Ex2 (10 μg/ml, 5 μg/ml and 2.5 μg/ml) were tested against HSV-1 and 2 through the syncytia formation assay.
(§5) Syncytia Formation Evaluation Through Bright Field Phase Contrast Optical Microscope Protocol: […]
(§6) The reduction of syncytia formation was assessed by bright field phase contrast optical microscope. […]

HSV-2 [2] = assay: as above; format: cell-based, HSV-2 (MS strain)
Procedure: as §1, §2, §3, §4, §5, §6

HSV-1 [3] = assay: Quantitative neutralizing activity through indirect immunofluorescence (IIF), InCellAnalyzer count; format: cell-based, HSV-1 (HF strain); settings: IgG1 Fab; Vero E6 cells
Procedure: (§7) The neutralizing activity of Fabs Ex2, Ex2B, Ex2C, Ex2H and Ex2I was evaluated using the InCellAnalyzer automated count system in order to calculate the IC50s of all Fab and obtain a dose-response curve. Several dilutions of the different Fabs were used in order to obtain the dose-response curve. In all sets of neutralization experiments several Fab dilutions were performed since only using a biological compound limit dilution was possible to obtain the exact amount of Fab able to inhibit viral infection.
(§8) Moreover, the same “dose-response” curve allowed the calculation of Fab IC50 which effectively depicts the in vitro Fab potency. The IC50 is the Fab concentration able to reduce by 50% the cell damage due to the infection of cell monolayer with a standard amount of virus (HSV-1 and HSV-2).
(§9) Quantitative Neutralizing Activity Evaluation Through Indirect Immunofluorescence (IIF) Assay Protocol: […]
(§10) Neutralization activity was then assessed by counting the immunofluorescence infection foci through InCellAnalyzer system.
(§11) The number of infection foci in the cell monolayer infected with viruses treated with the different Fab preparations was compared with the foci counted for the virus control (same virus amount)
(§12) The percentage of neutralization was then evaluated and a standard deviation from the mean was calculated as well (the experiment was performed in triplicate)

HSV-2 [4] = assay: as above; format: cell-based, HSV-2 (MS strain); settings: IgG1 Fab; Vero E6 cells
Procedure: as §7, §8, §9, §10, §11, §12

HSV-1 [5] = assay: Plaque reduction assay; format: cell-based, HSV-1 (HF strain); settings: 1 μg/mL
Procedure: (§13) Dose-response quantitative assay: the capability of Fab Ex2 to inhibit HSV infection was assessed by evaluating the presence of lysis plaques on cell monolayer due to HSV infection in the presence or in the absence of Fab Ex2. To confirm the IIF neutralization data, a plaque reduction assay was performed as quantitative evaluation.
(§14) Quantitative Neutralizing Activity Evaluation Through Plaque Reduction Assay Protocol:
(§15) 7×10^5 Vero cells/well were seeded in a 6-wells plate and grown in the appropriate complete medium supplemented with 10% FCS. Experiment was performed with cells at 100% confluence.
(§16) HSV-1 and HSV-2 viral stocks dilution (−5 and −4 respectively) were pre-incubated with purified Fab of interest at different concentrations (5, 2.5 and 1 μg/mL) in a final volume of 800 μL of complete DMEM, for 1 h at 37° C. and 5% CO2.
(§17) Experimental controls were added as well.
(§18) After washing the cells with a PBS 1× solution, viral solutions were added to the monolayers and incubated for 2 h at 37° C. and 5% CO2 for adsorption. […]
(§19) Neutralization activity was then assessed by counting the plaque forming units (PFU). In particular, the number of PFU in the cell monolayer infected with Fab-treated viruses was compared with the PFU counted for the virus control (same virus amount).

HSV-2 [6] = assay: Plaque reduction assay; format: cell-based, HSV-2 (MS strain); settings: due to very high potency
Procedure: as §13, §14, §15, §16, §17, §18, §19

HSV-1 [7] = assay: Cell-to-cell infection inhibition (plaque areas, post-adsorption); format: cell-based; settings: Fabs 50 ug/mL, IgGs 25 ug/mL
Procedure: (§20) Post post-adsorption assays have been performed in order to evaluate the contribution of IgGA in inhibiting “cell-to-cell” infection by measuring the plaque areas resulting from infected cells treated or untreated with FabA or IgGA.
(§21) Fabs tested in post-adsorption cell-to-cell infection inhibition assays have also been preliminary used at a concentration of 50 and 200 ug/mL against HSV-1 and HSV-2 tested isolates respectively*.
(§22) IgGs tested in post-adsorption “cell-to-cell” infection inhibition assays have also been preliminary used at a concentration of 25 and 100 ug/mL against HSV-1 and HSV-2 tested isolates respectively*.

HSV-2 [8] = assay: as above; format: cell-based; settings: Fabs 200 ug/mL, IgGs 100 ug/mL
Procedure: as §20, §21, §22

B1: Ex2: human monoclonal Fab, VH SEQ ID NO.1 and VL SEQ ID NO.2, IgG2 Fab converted to IgG1 (antibody, listed as Homo sapiens, V domains shown)
VH: LESGGGVVQPGRSLRLSCAASGFTFTTFAMHWVRQAPGKGLEWLAFISYDGSNKYYADSVKGRFTISRDNSKNTLYLQMNSLRAEDTSIYYCAREVWNYADYWGQGALVTVSS
VL: ELTQSPGTLSSSPGHRATLSCKASAPLGSNHMAWYQQKPGQAPRLLIYGASTRATGVPARFTGSGSGTDFTLTISSLQPEDFATYYCQQANSFPRTFGQGTKVEIK
modifications: IgG1 constant regions
inhibition of cellular disruption and syncytia formation, HSV-1 (HSV-1 [1]; 10 μg/ml, 5 μg/ml and 2.5 μg/ml, dose-dependent): strongly inhibit | neutralizing potency of IgG1 format compared to IgG2 format, HSV-1 (HSV-1 [1]; IgG1 converted Fabs): increased potency | inhibition of HSV-2 infection (syncytia formation assay) (HSV-2 [2]; 10 μg/ml, 5 μg/ml and 2.5 μg/ml, very low concentrations): completely inhibit | neutralizing potency of IgG1 format compared to IgG2 format, HSV-2 (HSV-2 [2]; IgG1 converted Fabs): increased potency | HSV-1 (IC50 μg/mL ± CI 95%) (HSV-1 [3]): 0.7 (0.44 ± 1.21) μg/mL | HSV-2 (IC50 μg/mL ± CI 95%) (HSV-2 [4]): 0.2 (0.19 ± 0.23) μg/mL | HSV-1 plaque formation measured as PFU (HSV-1 [5]): inhibited | dose-response effect in HSV-2 plaque neutralization assay (HSV-2 [6]): a dose-response effect could not be measured | inhibition of plaque areas (cell-to-cell infection), HSV-1 (HSV-1 [7]): inhibits | inhibition of plaque areas (cell-to-cell infection), HSV-2 (HSV-2 [8]): inhibits
